What was measured:
[1] = target: T1, Recombinant Human DLL4 (R&D Systems Cat#1506-D4/CF) (human, UniProt Q9NR61 27-524); assay: ECL (MSD) multispot binding assay, DLL4 spotted on plate, Fab in solution
T1 construct: Bought recombinant protein; also called delta-like protein 4; rHuman DLL4

[2] = target: T2, Recombinant Human DLL4 (delta-like protein 4) (human, UniProt Q9NR61 27-524); assay: ELISA, DLL4 coated on plate, 100 nM Fab
T2 construct: Bought recombinant human DLL4 (R&D Systems Cat#1506-D4/CF) coated on the ELISA plate; also called rHuman DLL4; Delta-like ligand 4

ECL signal [1] | Signal/Blank [1] | ELISA Signal-blank (100 nM Fab) [2] | Binder
– | – | 0.06 | Fab VH5-51_IGHD5-18*01>3_IGHJ4*01 G100K/G104T G24T/S28R/G35V (H:KT TRV) & V3-4_IGLJ1*01 V91L/S96P T53W (Fab, V domains shown, Fab made in E. coli: VH in plasmid A (CH1, His6 and Flag tags), VL in plasmid E (lambda CL); also called H:KT TRV & L:LP T53W) VH: EVQLVQSGAEVKKPGESLKISCKTSGYRFTSYWIVWVRQMPGKGLEWMGIIYPGDSDTRYSPSFQGQVTISADKSISTAYLQWSSLKASDTAMYYCARRKYSYTYDYFDYWGQGTLVTVSS VL: QTVVTQEPSFSVSPGGTVTLTCGLSSGSVSTSYYPSWYQQTPGQAPRTLIYSWNTRSSGVPDRFSGSILGNKAALTITGAQADDESDYYCLLYMGPGISYVFGTGTKVTVL
– | – | 0.21 | Fab VH5-51_IGHD5-18*01>3_IGHJ4*01 G100K/G104T G24T/S28R/G35V (H:KT TRV) & V3-4_IGLJ1*01 V91L/S96P S57Q (Fab, V domains shown, Fab made in E. coli: VH in plasmid A (CH1, His6 and Flag tags), VL in plasmid E (lambda CL); also called H:KT TRV & L:LP S57Q) VH: EVQLVQSGAEVKKPGESLKISCKTSGYRFTSYWIVWVRQMPGKGLEWMGIIYPGDSDTRYSPSFQGQVTISADKSISTAYLQWSSLKASDTAMYYCARRKYSYTYDYFDYWGQGTLVTVSS VL: QTVVTQEPSFSVSPGGTVTLTCGLSSGSVSTSYYPSWYQQTPGQAPRTLIYSTNTRQSGVPDRFSGSILGNKAALTITGAQADDESDYYCLLYMGPGISYVFGTGTKVTVL
– | – | 0.08 | Fab VH5-51_IGHD5-18*01>3_IGHJ4*01 G100K/G104T G24T/S28R/G35V (H:KT TRV) & V3-4_IGLJ1*01 V91L/S96P T53G (Fab, V domains shown, Fab made in E. coli: VH in plasmid A (CH1, His6 and Flag tags), VL in plasmid E (lambda CL); also called H:KT TRV & L:LP T53G) VH: EVQLVQSGAEVKKPGESLKISCKTSGYRFTSYWIVWVRQMPGKGLEWMGIIYPGDSDTRYSPSFQGQVTISADKSISTAYLQWSSLKASDTAMYYCARRKYSYTYDYFDYWGQGTLVTVSS VL: QTVVTQEPSFSVSPGGTVTLTCGLSSGSVSTSYYPSWYQQTPGQAPRTLIYSGNTRSSGVPDRFSGSILGNKAALTITGAQADDESDYYCLLYMGPGISYVFGTGTKVTVL
– | – | 0.34 | Fab VH5-51_IGHD5-18*01>3_IGHJ4*01 G100K/G104T G24T/S28R/G35V (H:KT TRV) & V3-4_IGLJ1*01 V91L/S96P S57V (Fab, V domains shown, Fab made in E. coli: VH in plasmid A (CH1, His6 and Flag tags), VL in plasmid E (lambda CL); also called H:KT TRV & L:LP S57V) VH: EVQLVQSGAEVKKPGESLKISCKTSGYRFTSYWIVWVRQMPGKGLEWMGIIYPGDSDTRYSPSFQGQVTISADKSISTAYLQWSSLKASDTAMYYCARRKYSYTYDYFDYWGQGTLVTVSS VL: QTVVTQEPSFSVSPGGTVTLTCGLSSGSVSTSYYPSWYQQTPGQAPRTLIYSTNTRVSGVPDRFSGSILGNKAALTITGAQADDESDYYCLLYMGPGISYVFGTGTKVTVL

The remaining lines, values behind:

Binder | ECL signal [1] | Signal/Blank [1] | ELISA Signal-blank (100 nM Fab) [2]
Fab VH1-46_IGHD6-6*01_IGHJ1*01 S102A/S103P/S104F (APF) & L6_IGKJ1*01 S30L (Fab, V domains shown, Tested as a Fab; Expressed in E. coli from Plasmid A (CH1 with His6 and Flag tags) and Plasmid C (kappa CL); also called APF & S30L) VH: QVQLVQSGAEVKKPGASVKVSCKASGYTFTSYYMHWVRQAPGQGLEWMGIINPSGGSTSYAQKFQGRVTMTRDTSTSTVYMELSSLRSEDTAVYYCAREEYAPFSAEYFQHWGQGTLVTVSS VL: EIVLTQSPATLSLSPGERATLSCRASQSVLSYLAWYQQKPGQAPRLLIYDASNRATGIPARFSGSGSGTDFTLTISSLEPEDFAVYYCQQRSNWPPWTFGQGTKVEIKR | 1630 | 6.9 | –
Fab VH1-46_IGHD6-6*01_IGHJ1*01 S102A/S103P/S104F (APF) & L6_IGKJ1*01 S30R (Fab, V domains shown, Tested as a Fab; Expressed in E. coli from Plasmid A (CH1 with His6 and Flag tags) and Plasmid C (kappa CL); also called APF & S30R) VH: QVQLVQSGAEVKKPGASVKVSCKASGYTFTSYYMHWVRQAPGQGLEWMGIINPSGGSTSYAQKFQGRVTMTRDTSTSTVYMELSSLRSEDTAVYYCAREEYAPFSAEYFQHWGQGTLVTVSS VL: EIVLTQSPATLSLSPGERATLSCRASQSVRSYLAWYQQKPGQAPRLLIYDASNRATGIPARFSGSGSGTDFTLTISSLEPEDFAVYYCQQRSNWPPWTFGQGTKVEIKR | 745 | 7.8 | –
Fab VH1-46_IGHD6-6*01_IGHJ1*01 S102A/S103P/S104F (APF) & L6_IGKJ1*01 S30W (Fab, V domains shown, Tested as a Fab; Expressed in E. coli from Plasmid A (CH1 with His6 and Flag tags) and Plasmid C (kappa CL); also called APF & S30W) VH: QVQLVQSGAEVKKPGASVKVSCKASGYTFTSYYMHWVRQAPGQGLEWMGIINPSGGSTSYAQKFQGRVTMTRDTSTSTVYMELSSLRSEDTAVYYCAREEYAPFSAEYFQHWGQGTLVTVSS VL: EIVLTQSPATLSLSPGERATLSCRASQSVWSYLAWYQQKPGQAPRLLIYDASNRATGIPARFSGSGSGTDFTLTISSLEPEDFAVYYCQQRSNWPPWTFGQGTKVEIKR | 791 | 4.3 | –
Fab VH1-46_IGHD6-6*01_IGHJ1*01 S102A/S103P/S104F (APF) & L6_IGKJ1*01 S30T (Fab, V domains shown, Tested as a Fab; Expressed in E. coli from Plasmid A (CH1 with His6 and Flag tags) and Plasmid C (kappa CL); also called APF & S30T) VH: QVQLVQSGAEVKKPGASVKVSCKASGYTFTSYYMHWVRQAPGQGLEWMGIINPSGGSTSYAQKFQGRVTMTRDTSTSTVYMELSSLRSEDTAVYYCAREEYAPFSAEYFQHWGQGTLVTVSS VL: EIVLTQSPATLSLSPGERATLSCRASQSVTSYLAWYQQKPGQAPRLLIYDASNRATGIPARFSGSGSGTDFTLTISSLEPEDFAVYYCQQRSNWPPWTFGQGTKVEIKR | 1020 | 4.9 | –
Fab VH5-51_IGHD5-18*01>3_IGHJ4*01 G100K/G104T G24T/S28R/G35V (H:KT TRV) & V3-4_IGLJ1*01 V91L/S96P S57H (Fab, V domains shown, Fab made in E. coli: VH in plasmid A (CH1, His6 and Flag tags), VL in plasmid E (lambda CL); also called H:KT TRV & L:LP S57H) VH: EVQLVQSGAEVKKPGESLKISCKTSGYRFTSYWIVWVRQMPGKGLEWMGIIYPGDSDTRYSPSFQGQVTISADKSISTAYLQWSSLKASDTAMYYCARRKYSYTYDYFDYWGQGTLVTVSS VL: QTVVTQEPSFSVSPGGTVTLTCGLSSGSVSTSYYPSWYQQTPGQAPRTLIYSTNTRHSGVPDRFSGSILGNKAALTITGAQADDESDYYCLLYMGPGISYVFGTGTKVTVL | – | – | 0.21
Fab VH5-51_IGHD5-18*01>3_IGHJ4*01 G100K/G104T G24T/S28R/G35V (H:KT TRV) & V3-4_IGLJ1*01 V91L/S96P S57L (Fab, V domains shown, Fab made in E. coli: VH in plasmid A (CH1, His6 and Flag tags), VL in plasmid E (lambda CL); also called H:KT TRV & L:LP S57L) VH: EVQLVQSGAEVKKPGESLKISCKTSGYRFTSYWIVWVRQMPGKGLEWMGIIYPGDSDTRYSPSFQGQVTISADKSISTAYLQWSSLKASDTAMYYCARRKYSYTYDYFDYWGQGTLVTVSS VL: QTVVTQEPSFSVSPGGTVTLTCGLSSGSVSTSYYPSWYQQTPGQAPRTLIYSTNTRLSGVPDRFSGSILGNKAALTITGAQADDESDYYCLLYMGPGISYVFGTGTKVTVL | – | – | 0.3

— patent US20120316071A1 (published 2012)
